experiment: soluble on expression in E. coli; label from the status in PepcDB or PDB records

| Sequence | soluble on expression in E. coli |
| --- | --- |
| MGHHHHHHSHMLFEEAFVHLKPQVCLPLWISWAEWSEGAKSQEDTEAVFKKALLAVIGADSVTLKNKYLDWAYRSGGYKKARAVFKSLQESRPFSVDFFRKMIQFEKEQESCNMANIREYYERALREFGSADSDLWMDYMKEELNHPLGRPENCGQIYWRAMKMLQGESAEAFVAKHAMHQTGHL | not soluble |
| MGHHHHHHSHMLINARISVRSYPKYQRFSFFYALLFKRIDLILAQSKEDKKRLLNLGAKKVVDFLNIKRFSKPVITSFYPKNPSALNIVLASTHEGEEELGLKAFLELKKTFKNARLIVVPRHPERFKSVQDLLQNTLKTTPFSWECFSSKGFVECDILLVDSLGELNNFYQIADIVILGGSFVKMGGHNPLEPAFFNARLITGEYIFNQVALFELVKPYKIVPKEDLLDALLDYKNLGMARFLENGHDLNELLAFIKH | not soluble |
| MGHHHHHHSHMNGRADFREPNAEVPRPIPHIGPDYIPTEEERRVFAECNDESFWFRSVPLAATSMLITQGLISKGILSSHPKYGSIPKLILACIMGYFAGKLSYVKTCQEKFKKLENSPLGEALRSGQARRSSPPGHYYQKSKYDSSVSGQSSFVTSPAADNIEMLPHYEPIPFSSSMNESAPTGITDHIVQGRNFS | soluble |
| MGHHHHHHSHMNVVKASPQSALLLYISELIQEKNPMNAMNVVKPSARKYASYNMRDVIQERLPLYVPSAENPIHTNMASLPIREFTQERNLMSAMNVERPSPQSQYSMYIKERIQERGRMDAVIVRKPSPTYQTLSNIRKCTQEKWVESVKLKTPVMESHSSFLISELMQKKTLLVP | not soluble |
| MGHHHHHHSHMPGRSSSNSGSTGFISFSGVESALSSLKNFQACINSGMDTASSVALDLVESQTEVSSEYSMDKAMVEFATLDRQLNHYVKAVQSTINHVKEERPEKIPDLKLLVEKKLLALQSKNSDADFQNNEKFVQFKQQLKELKKQCGLQADREADGTEGVDEDIIVTQSQTNFTCPITKEEMKKPVKNKVCGHTYEEDAIVRMIESRQKRKKKAYCPQIGCSHTDIRKSDLIQDEALRRAIENHNKKRHRHSE | not soluble |
| MGHHHHHHSHMPPAAAGPLAGQPRKSSSSRRNAWGNLSYADLITKAIESSAEKRLTLSQIYEWMVKSVPYFKDKGDSNSSAGWKNSIRHNLSLHSKFIRVQNEGTGKSSWWMLNPEGGKSGKSPRRRAASMDNNSKFAKSRSRAAKKKA | soluble |
| MGHHHHHHSHMQGLLRFEDQDSARGDQNIAMFYPTSTQMVYRRGLQAIPLSGDLWIHYINFLKETLDPGDPETNNTIRGTFEHAVLAAGTDFRSDRLWEMYIDWENEQGNLREVTAIYDRILGIPTQLCSHHFQRFKEHVQNNLPRDLLTGEQFIQLRRELASVNGHSGDDGPPGDDLPSGIEDITDPAKLITEIENMRHRIIEIHQEMFNYNEHEVSKRWTFEEGIKRPYFHVKPLEKAQLKKLERILRI | soluble |
| MGHHHHHHSHMSEDNRPLTGLAAAIAGAKLRKVSRMEDTSFPSGGNAIGVNSASSKTDTGRGNGPLPLGGSGLMEEMSALLARRRRIAEKGSTIETEQKEDKGEDSEPVTSKASSTSTPEPTRKPWERTNTMNGSKSPVISRPKSTPLSQPSANGVQTEGLDYDRLKQDILDEMRKELTKLKEELIDAIRQELSKSNTA | not soluble |
| MGHHHHHHSHMSHTQQQTASSTETSTVTVPPSREQNLVLHLSPNPAQPSTSERRHVVWATETVDNEGMGKKKSKCCCIYKKPKNWQDSSSDSDSDCETGHCRGHVEHKKNEEPKSSN | soluble |
| MGHHHHHHSHMSNLTPESSPELAKKSWFGNFISLEKEEQIFVVIKDKPLSSIKADIVHAFLSIPSLSHSVISQTSFRAEYKATGGPAVFQKPVKFQVDITYTEGGEAQKENGIYSVTFTLLSGPSRRFKRVVETIQAQLLSTHDPLRPSTCQTPLTVWK | not soluble |
| MGHHHHHHSHMSRPGHGGLMPVNGLGFPPQNVARVVVWEWLNEHSRWRPYTATVCHHIENVLKEDARGSVVLGQVDAQLVPYIIDLQSMHQFRQDTGTMRPVRRNFYDPSSAPGKGIVWEWENDGGAWTAYDMDICITIQNAYEKQHPWLDLSSLGFCYLIYFNSMSQMNRQTRRRRRLRRRLDLAYPLTVGSIPKSQSWPVGASSGQPCSCQQCLLVNSTRAASNAILASQRRKAPPAPPL | not soluble |
| MGHHHHHHSHMSYKPNLAAHMPAAALNAAGSVHSPSTSMATSSQYRQLLSDYGPPSLGYTQGTGNSQVPQSKYAELLAIIEELGKEIRPTYAGSKSAMERLKRGIIHARGLVRECLAETERNARS | soluble |
| MGHHHHHHSHMTDPLAPEGDNRVWYMDGYHNNRFVREYKSMVDFMNTDNFTSHRLPHPWSGTGQVVYNGSIYFNKFQSHIIIRFDLKTETILKTRSLDYAGYNNMYHYAWGGHSDIDLMVDESGLWAVYATNQNAGNIVVSRLDPVSLQTLQTWNTSYPKRSAGEAFIICGTLYVTNGYSGGTKVHYAYQTNASTYEYIDIPFQNKYSHISMLDYNPKDRALYAWNNGHQILYNVTLFHVIRSDEL | not soluble |
| MGHHHHHHSHMTKLPPIEQLLPHDKPMILVDRAMDIQQDTIHCQVDIAEHNPFFDSASQTVPAYVGIEFMAQSVAAWSGYHALMKEQAPPIGFLLGSRRYTSECDAFSRGQMLDVYAEKVMEDNGMAVFSARIELQGTVVATCQLNVYVPSEEKLQEMKIRSQQ | not soluble |
| MGHHHHHHSHMVAWKRQLILFGGFHESTRDYIYYNDVYAFNLDTFTWSKLSPSGTGPTPRSGCQMSVTPQGGIVVYGGYSKQRVKKDVDKGTRHSDMFLLKPEDGREDKWVWTRMNPSGVKPTPRSGFSVAMAPNHQTLFFGGVCDEEEEESLSGEFFNDLYFYDATRNRWFEGQLKKLRSGWRRRTRKRTVRRLRAPRVGSTTKTAERRAVRRTESPCQGRLASAVPTSAQDPAVLSEALGASVRPDAQERAEGGWPRPGCELSPMV | not soluble |
| MGHHHHHHSHMVDIDLPEPPKPTPPDQETEEEQRFRALFEQVAGEDMEVTAEELEYVLNAVLQKKKDIKFKKLSLISCKNIISLMDTSGNGKLEFDEFKVFWDKLKQWINLFLRFDADKSGTMSTYELRTALKAAGFQLSSHLLQLIVLRYADEELQLDFDDFLNCLVRLENASRVFQALSTKNKEFIHLNINEFIHLTMNI | soluble |
| MGHHHHHHSHMVTSITATANQMPANPPKTVFEFSTEINRTIEKDVMQAVVYSRKTGKQLPDLKKSVSLHLNKVIDNAKKQSDIELEANGVRNFVNYDNNNKPDGWVAEGRVYLKSKNFEALAKVLEQLDSEVAISDIYFSVSPEKAKTLENEMILDVLKQFKHKAEVVQAGLNAKNYVLTDVKLDTPNGNLDQFEVRSFAMMARSVRPASAKEELSLEPGKATLSARASGKVQFE | soluble |
| MGHHHHHHSHMYAFTLHPNAQHRRTRIGTSVDLSCLLCFRIGGFYALSPYPGLRLISLNMNFCSRENFWLLINSTDPAGQLQWLVGELQAAEDRGDKVRASSGNTVVLGDKQAPVELEHLWAQKFYFPGIPNKCSLGIQLMVTVESLHSVPLSLARAAWTPGCPDYHP | not soluble |
| MGHHHHHHSHQHLEVRDEVAEKCQKLFLDFLEEFQSSDGEIKYLQLAEELIRPERNTLVVSFVDLEQFNQQLSTTIQEEFYRVYPYLCRALKTFVKDRKEIPLAKDFYVAFQDLPTRHKIRELTSSRIGLLTRISGQVVRTHPVHPELVSGTFLCLDCQTVIRDVEQQFKYTQPNICRNPVCANRRRFLLDTNKSRFVDFQKVRIQETQAELPRGSIPRSLEVILRAEAVESAQAGDKCDFTGTLIVVPDVSKLSTPGARAETNSRVSGVDGYETEGIRGL | not soluble |
| MGHHHHHHSHRSQPVHILAVRRLQEEDQQFRTSSLPAIPNPFPELCGPGSPPVLTPGSLPPSQAAAKQDVKVFSEDGTSKVVEILADMTARDLCQLLVYKSHCVDDNSWTLVEHHPHLGLERCLEDHELVVQVESTMASESKFLFRKNYAKYEFF | not soluble |

— the DeepSol protein solubility set
